Experimental data from patent US20220332804A1 (CSL INNOVATION, published 2022).

T1: human C2 D404A (human, UniProt P06681 21-752)
T1 sequence: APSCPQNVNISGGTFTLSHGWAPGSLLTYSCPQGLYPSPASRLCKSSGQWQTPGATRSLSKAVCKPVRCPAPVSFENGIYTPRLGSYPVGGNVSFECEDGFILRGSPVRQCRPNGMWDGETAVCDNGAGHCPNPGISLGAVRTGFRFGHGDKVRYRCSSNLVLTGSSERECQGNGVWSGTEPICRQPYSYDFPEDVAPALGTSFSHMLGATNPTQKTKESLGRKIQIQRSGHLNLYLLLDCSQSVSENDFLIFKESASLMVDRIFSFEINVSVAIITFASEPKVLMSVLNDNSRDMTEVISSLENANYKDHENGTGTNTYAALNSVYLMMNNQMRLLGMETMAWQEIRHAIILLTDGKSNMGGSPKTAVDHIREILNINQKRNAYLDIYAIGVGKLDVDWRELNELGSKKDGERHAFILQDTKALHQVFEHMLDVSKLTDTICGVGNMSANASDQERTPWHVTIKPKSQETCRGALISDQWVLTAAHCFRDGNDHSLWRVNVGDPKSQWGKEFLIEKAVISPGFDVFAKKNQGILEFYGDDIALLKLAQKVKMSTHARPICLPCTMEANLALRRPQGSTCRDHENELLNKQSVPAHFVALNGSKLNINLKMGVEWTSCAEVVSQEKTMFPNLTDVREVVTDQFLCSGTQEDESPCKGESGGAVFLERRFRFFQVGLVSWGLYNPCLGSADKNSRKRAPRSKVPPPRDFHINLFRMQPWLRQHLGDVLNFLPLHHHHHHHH

T2: human C2 L279A (human, UniProt P06681 21-752)
T2 sequence: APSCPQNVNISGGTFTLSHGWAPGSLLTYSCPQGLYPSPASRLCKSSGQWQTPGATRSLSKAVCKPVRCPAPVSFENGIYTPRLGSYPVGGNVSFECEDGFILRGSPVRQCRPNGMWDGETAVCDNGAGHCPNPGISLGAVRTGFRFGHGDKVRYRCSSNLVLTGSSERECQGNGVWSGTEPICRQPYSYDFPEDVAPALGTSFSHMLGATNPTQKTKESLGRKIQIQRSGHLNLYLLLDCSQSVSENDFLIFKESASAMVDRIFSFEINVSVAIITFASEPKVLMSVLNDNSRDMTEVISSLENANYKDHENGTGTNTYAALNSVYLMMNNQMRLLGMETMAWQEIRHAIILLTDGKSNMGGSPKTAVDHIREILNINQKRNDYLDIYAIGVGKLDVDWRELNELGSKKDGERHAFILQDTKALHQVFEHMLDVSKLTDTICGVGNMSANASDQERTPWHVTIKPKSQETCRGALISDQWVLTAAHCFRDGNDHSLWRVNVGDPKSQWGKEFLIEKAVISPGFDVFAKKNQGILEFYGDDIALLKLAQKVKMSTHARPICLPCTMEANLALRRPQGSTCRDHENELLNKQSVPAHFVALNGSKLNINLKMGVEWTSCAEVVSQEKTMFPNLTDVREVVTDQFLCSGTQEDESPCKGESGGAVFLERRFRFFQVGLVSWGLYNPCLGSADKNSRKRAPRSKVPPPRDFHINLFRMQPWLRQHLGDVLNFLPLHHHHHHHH

T3: human C2 D454A (human, UniProt P06681 21-752)
T3 sequence: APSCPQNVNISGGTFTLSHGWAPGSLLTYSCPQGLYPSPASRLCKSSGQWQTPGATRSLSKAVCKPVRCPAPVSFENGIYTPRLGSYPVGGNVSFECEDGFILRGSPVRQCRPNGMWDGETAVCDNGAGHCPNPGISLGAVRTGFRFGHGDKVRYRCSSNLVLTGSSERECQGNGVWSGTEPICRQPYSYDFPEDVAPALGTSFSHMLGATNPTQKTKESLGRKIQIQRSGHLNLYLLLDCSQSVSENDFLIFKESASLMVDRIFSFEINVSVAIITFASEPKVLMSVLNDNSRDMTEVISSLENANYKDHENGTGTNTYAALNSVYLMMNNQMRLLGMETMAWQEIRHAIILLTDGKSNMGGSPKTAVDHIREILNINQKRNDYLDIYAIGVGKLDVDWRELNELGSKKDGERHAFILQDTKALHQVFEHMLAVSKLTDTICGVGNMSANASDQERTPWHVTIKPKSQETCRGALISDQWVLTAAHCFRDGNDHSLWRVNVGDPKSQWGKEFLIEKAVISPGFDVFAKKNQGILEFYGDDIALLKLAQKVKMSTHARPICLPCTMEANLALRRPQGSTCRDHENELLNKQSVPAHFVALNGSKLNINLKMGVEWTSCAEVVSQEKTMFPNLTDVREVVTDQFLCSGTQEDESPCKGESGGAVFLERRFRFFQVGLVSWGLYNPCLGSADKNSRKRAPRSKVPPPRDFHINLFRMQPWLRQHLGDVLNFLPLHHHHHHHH

T4: human C2 I438A (human, UniProt P06681 21-752)
T4 sequence: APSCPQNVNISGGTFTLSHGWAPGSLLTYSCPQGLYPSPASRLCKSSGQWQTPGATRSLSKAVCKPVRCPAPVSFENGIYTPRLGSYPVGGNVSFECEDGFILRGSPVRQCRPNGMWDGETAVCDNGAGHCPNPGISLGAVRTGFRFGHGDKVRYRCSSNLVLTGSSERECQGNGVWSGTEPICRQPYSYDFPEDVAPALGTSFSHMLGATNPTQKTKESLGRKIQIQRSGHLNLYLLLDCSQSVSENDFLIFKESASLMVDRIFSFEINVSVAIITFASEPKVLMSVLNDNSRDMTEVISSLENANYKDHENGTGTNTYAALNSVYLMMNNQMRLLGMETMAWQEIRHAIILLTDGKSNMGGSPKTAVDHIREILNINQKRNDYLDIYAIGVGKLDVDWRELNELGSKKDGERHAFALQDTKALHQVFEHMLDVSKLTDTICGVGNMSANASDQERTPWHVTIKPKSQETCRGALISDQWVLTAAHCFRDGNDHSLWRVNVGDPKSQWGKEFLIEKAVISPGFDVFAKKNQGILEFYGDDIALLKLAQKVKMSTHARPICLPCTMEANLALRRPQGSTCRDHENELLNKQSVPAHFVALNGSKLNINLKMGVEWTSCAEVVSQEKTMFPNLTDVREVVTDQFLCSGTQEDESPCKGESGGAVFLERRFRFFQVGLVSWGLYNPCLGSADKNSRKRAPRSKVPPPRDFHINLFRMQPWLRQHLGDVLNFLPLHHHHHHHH


Key:
Assay in all cases: SPR, antibody captured, C2 as analyte
[1] = target: T1, human C2 D404A;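 further: biacore SPR at 37 °C, anti-C2 mAbs captured via goat anti-human IgG on CM5 chips, double-referenced sensorgrams fit to a 1:1 kinetic or steady-state model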
[2] = target: T2, human C2 L279A
[3] = target: T3, human C2 D454A
[4] = target: T4, human C2 I438A

Binder | Kd [1] | Kd [2] | Kd [3] | Kd [4]
RF16-226 (antibody, human IgG4 S228P, lambda, pH-dependent anti-C2 antibody from a phage display library; also called WT) heavy: not shown light: SYELTQPPSVSVSPGQTARITCSGDALTSKYVAWYQQKSGLAPLLVIYEDTRRPSGIPAKFSGSSSGSVATLTISGAHGDDEADYYCYSTDASGHQRVFGGGTKLTVLSQPKAAPSVTLFPPSSEELQANKATLVCLISDFYPGAVTVAWKADGSPVKAGVETTKPSKQSNNKYAASSYLSLTPEQWKSHRSYSCQVTHEGSTVEKTVAPTECS | 12.8 nM | – | – | –
RF16-242 (antibody, human IgG4 S228P, lambda, V domains shown, pH-dependent anti-C2 antibody from a phage display library) VH: EVQLLQSGAEVKKPGESLKISCKGSGYSFTSYWIGWVRQMPGKGLEWMGIIYPGDSDTRYSPSFQGQVTISADKSISTAYLQWSSLKASDTAMYYCARRGHYGDYFDYWGQGTLVTVSS VL: SYELTQPPSVSVSPGQTARITCSGDALPKKYAYWYHQKSGQAPVLVIYEDRRRPSEIPERFSGSSSGTMATLTITGAQVEDEGVYFCYSRDRAGNQRVFGGGTQLTVLG | – | 49.2 nM | 35.4 nM | 8.7 nM
